From patent US6905854B2, “Mutated penicillin expandase and process for preparing 7-ADCA using the same” (Synmax Biochemical Co., Ltd., priority 2002, dated 2005) come the findings set out here.

Usually Km stands for the concentration of substrate that gives half-maximal velocity.

What all share (assay type): biochemical
A short description of series [1]: Kinetic assay of purified DAOCS with penicillin N as main substrate. On the procedure: (§1) The cell extract (2 ml) of a candidate mutant was applied onto a HiTrap Q column (5 ml) pre-equilibrated with buffer B (50 mM Mops/pH 7.5, 1 mM DTT, 0.4 mM pefabloc SC, and 0.5 μg/ml leupeptin). Then, the column was washed with 20 ml of buffer B, followed by a further wash with 25 ml of buffer B containing 120 mM NaCl, and DAOCS was eluted off with 20 ml of buffer B containing 150 mM NaCl. The DAOCS containing fractions were pooled (10 ml), concentrated by UF 15 device (NMWL 5K; Millipore), and loaded onto a Hiload Superdex 75 (16/60) column pre-equilibrated with buffer B at a flow rate of 1 ml/min.
(§2) The standard penicillin G assay was followed for kinetic assay, but 20 μg of purified DAOCS was used and the concentration of α-ketoglutarate was reduced to 1 mM. Kinetic parameters were obtained from triplicate experiments by Hanes-Woolf Plot. For assays using penicillin N as a main substrate, a total volume of 240 μl reaction containing 50 mM Hepes/pH 7.5, 0.4 mM ascorbate, 0.1 mM FeSO4, 0.1 mM α-ketoglutarate, 0.1 mM penicillin N and 0.5 μg of purified DAOCS was incubated at 30° C. for 10 minutes, then the same volume of 10 mM EDTA/pH 7.5 was added, and the mixture was subjected to ultrafiltration with UF 0.5 device (NMWL 5000, Millipore). The filtrate was analyzed by HPLC using 25 mM potassium phosphate/pH 6.5 as a mobile phase. The retention time of DAOC and penicillin N was 12 minutes and 13.5 minutes, respectively The results of kinetic parameters are shown in Table 1, wherein the definition and calculation of the parameters are described in Lehninger et al. Principles of Biochemistry, 2nd Ed. Worth Publishers, New York (1993) which is incorporated herein for reference.

Series [2] can be described thus: Kinetic assay of purified DAOCS with penicillin G (standard penicillin G assay, HPLC of cephalosporin G). The settings on record: for penicillin G, 20 μg purified DAOCS, 1 mM α-ketoglutarate, 30° C. On the procedure: (§3) For penicillin G, 20 μl of cell extracts was added into a standard 200 μl assay reaction containing 50 mM Mops/pH 7.5, 4 mM ascorbate, 1 mM FeSO4, 4 mM α-ketoglutarate and 7 mM penicillin G, and incubated at 30° C. for 20 minutes. The reaction was stopped by addition of 200 μl of ethanol, followed by a centrifugation at 15,000×g for 5 minutes. The concentration of cephalosporin G in supernatant was analyzed by HPLC with 40 μl injection. The mobile phase was 25 mM potassium phosphate/pH 6.5 with 19% acetonitrile at a flow rate of 1 ml/min. The retention time for cephalosporin G was 8.5 minutes and 12.5 minutes for penicillin G with detection at 215 nm, and the product at 8.5 minutes in DAOCS reaction was confirmed by ESI-LC/MS (positive): [M+H]^+=333. […] The different combinations of the mutated amino acids mentioned above were also constructed by site-directed mutagenesis.
as §1, §2

Series [3] can be described thus: DAOCS activity assay with cell extracts. The note with it: 20 μl cell extract, 7 mM penicillin G, 30° C., 20 minutes. The procedure:
BL21(DE3) transformants were grown overnight in 5 ml of LB medium with 50 μg/ml kanamycin at 30° C. This culture was used to inoculate 100 ml of the same medium and grown at 30° C. for 1 hour. Then 0.1 mM IPTG was added to induce DAOCS indirectly at 30° C. for 4 hours. Cells were harvested, washed with buffer A (50 mM Mops/pH 7.5, 1 mM PMSF, 1 mM DTT, and 0.5 μg/ml leupeptin), lysed by sonication (VCX 750; Sonics & Materials, USA), and centrifuged at 15,000×g for 15 minutes. The supernatant was used as a cell extract.
as §3

B1: YS12: mutated penicillin expandase (DAOCS) with substitution N304K (protein, UniProt P18548 1-311, looked up, variant N304K)
Deacetoxycephalosporin C …: MDTTVPTFSLAELQQGLHQDEFRRCLRDKGLFYLTDCGLTDTELKSAKDLVIDFFEHGSEAEKRAVTSPVPTMRRGFTGLESESTAQITNTGSYSDYSMCYSMGTADNLFPSGDFERIWTQYFDRQYTASRAVAREVLRATGTEPDGGVEAFLDCEPLLRFRYFPQVPEHRSAEEQPLRMAPHYDLSMVTLIQQTPCANGFVSLQAEVGGAFTDLPYRPDAVLVFCGAIATLVTGGQVKAPRHHVAAPRRDQIAGSSRTSSVFFLRPNADFTFSVPLARECGFDVSLDGETATFQDWIGGNYVKIRRTSKA
For B1, the kcat in series [1] (for penicillin N, 0.5 μg purified DAOCS, 30° C., 10 minutes) was 0.366 ± 0.023 S^−1; in series [2], 0.0564 ± 0.0003 S^−1. Moreover, the Km is 4 ± 1 µM in series [1] (for penicillin N, 0.5 μg purified DAOCS, 30° C., 10 minutes, triplicate, Hanes-Woolf Plot) and 220 ± 30 µM in series [2] (triplicate, Hanes-Woolf Plot). Moreover, in series [1] (penicillin N, compared to wild-type YS16), the “expansion activity on penicillin N, folds higher than wild-type YS16” value is 4 folds. Further, the “expandase activity on penicillin G compared to parent strain YS16” value in series [3] was “higher expandase activities on penicillin G than the parent strain YS16”.
